What is called stoichiometry N is a count of units in the complex or per binding partner.

From publication doi:10.1101/679431 (bioRxiv, 2019) come the findings set out here.

Series [1] deals with the molecule itself. The series can be described thus: native gel or EMSA. Background: In EMSA bound probe runs differently from free probe, usually more slowly.
Series [2] deals with the molecule itself. The series is described as follows: affinity purification with mass spectrometry + native gel or EMSA.

B1: endogenous TRAP1 (natural protein)
chain: STQTAEDKEEPLHSIISSTESVQGSTSKHEFQAETKKLLDIVARSLYSEKEVFIRELISNASDALEKLRHKLVSDGQALPEMEIHLQTNAEKGTITIQDTGIGMTQEELVSNLGTIARSGSKAFLDALQNQAEASSKIIGQFGVGFYSAFMVADRVEVYSRSAAPGSLGYQWLSDGSGVFEIAEASGVRTGTKIIIHLKSDCKEFSSEARVRDVVTKYSNFVSFPLYLNGRRMNTLQAIWMMDPKDVREWQHEEFYRYVAQAHDKPRYTLHYKTDAPLNIRSIFYVPDMKPSMFDVSRELGSSVALYSRKVLIQTKATDILPKWLRFIRGVVDSEDIPLNLSRELLQESALIRKLRDVLQQRLIKFFIDQSKKDAEKYAKFFEDYGLFMREGIVTATEQEVKEDIAKLLRYESSALPSGQLTSLSEYASRMRAGTRNIYYLCAPNRHLAEHSPYYEAMKKKDTEVLFCFEQFDELTLLHLREFDKKKLISVETDIVVDHYKEEKFEDRSPAAECLSEKETEELMAWMRNVLGSRVTNVKVTLRLDTHPAMVTVLEMGAARHFLRMQQLAKTQEERAQLLQPTLEINPRHALIKKLNQLRASEPGLAQLLVDQIYENAMIAAGLVDDPRAMVGRLNELLVKALERH
In the case of B1, the “stoichiometry N” value in series [1] is 4.

B2: TRAP1-GST fusion protein (natural protein)
chain: STQTAEDKEEPLHSIISSTESVQGSTSKHEFQAETKKLLDIVARSLYSEKEVFIRELISNASDALEKLRHKLVSDGQALPEMEIHLQTNAEKGTITIQDTGIGMTQEELVSNLGTIARSGSKAFLDALQNQAEASSKIIGQFGVGFYSAFMVADRVEVYSRSAAPGSLGYQWLSDGSGVFEIAEASGVRTGTKIIIHLKSDCKEFSSEARVRDVVTKYSNFVSFPLYLNGRRMNTLQAIWMMDPKDVREWQHEEFYRYVAQAHDKPRYTLHYKTDAPLNIRSIFYVPDMKPSMFDVSRELGSSVALYSRKVLIQTKATDILPKWLRFIRGVVDSEDIPLNLSRELLQESALIRKLRDVLQQRLIKFFIDQSKKDAEKYAKFFEDYGLFMREGIVTATEQEVKEDIAKLLRYESSALPSGQLTSLSEYASRMRAGTRNIYYLCAPNRHLAEHSPYYEAMKKKDTEVLFCFEQFDELTLLHLREFDKKKLISVETDIVVDHYKEEKFEDRSPAAECLSEKETEELMAWMRNVLGSRVTNVKVTLRLDTHPAMVTVLEMGAARHFLRMQQLAKTQEERAQLLQPTLEINPRHALIKKLNQLRASEPGLAQLLVDQIYENAMIAAGLVDDPRAMVGRLNELLVKALERH
Turning to B2, the “stoichiometry N” value in series [2] was determined as 4.
